What all share (experiment): purified protein
Type in all cases: biochemical, Leishmania donovani

Substrate in series [1]: CC(=O)C(=O)O
The following applies: co-substrate Tyr 4 mM; sodium pyruvate 0-200 mM; PLP 30 μM, 37 °C.

Substrate in series [2]: CSCCC(=O)C(=O)O
The conditions noted are these: co-substrate Tyr 4 mM; KMB 0-4.5 μM; PLP 30 μM, 37 °C.

Substrate in series [3]: Cc1ncc(COP(=O)(O)O)c(C=O)c1O
The following applies: tyrosine-sodium pyruvate as substrates; covalent internal aldimine with K286; varied: cofactor.

Substrate in series [4]: N[C@@H](Cc1c[nH]c2ccccc12)C(=O)O
The conditions noted are these: co-substrate sodium pyruvate 100 mM; Trp 0-7 mM; PLP 30 μM, 37 °C.

Substrate in series [5]: N[C@@H](Cc1ccc(O)cc1)C(=O)O
The following applies: co-substrate sodium pyruvate 100 mM; Tyr 0-7 mM; PLP 30 μM, 37 °C.

Substrate in series [6]: N[C@@H](Cc1ccccc1)C(=O)O
The following applies: co-substrate sodium pyruvate 100 mM; Phe 0-7 mM; PLP 30 μM, 37 °C.

The values that follow come from PMC6768288, “Biochemical and structural characterization of tyrosine aminotransferase suggests broad substrate specificity and a two‐state folding mechanism in Leishmania donovani” (FEBS Open Bio, 2019).

What is called Km is the substrate concentration at which the rate is half of its maximum. As a reminder, the Vmax is the top rate of the reaction or transport when substrate is in excess.

B1: LdTAT (Leishmania donovani) (protein)
chain: MTIDTQAAPAAQTLKAGNATGSLTEERREVEQQRAAENTSFRRIASSKHAQRTLQPLNNLTDNMKPSRSTKSNLRLSIGDPTVDGNLKTPDIVTEAMVDIVRSGKFNGYPPTVGADNLRQVVSTYWRRFCQTKSRQEALKWENVIITSGVSQAIVLALTALCNEGDNILVCAPSFPHYKSVCDSYGIECRYYYLDPSKSWECDLRAAAGMVDSHTKAFVIINPSNPCGSNFSRAHVSDIIDFCQQHQIPLISDEIYAEMVLNNGIFTSVADFDTNVPRLILGGTAKYQVCPGWRVGWSILIDPMNVAGDWAVGMERLTQLIAGVNSICQEAIARTLLKCPAECTEHIVTQLEAGAKVYARLLEHDIGISMEAPQASMFVMLKLNLSYFQDLKSDMEFYEKLLDEENVQVLPGEIFGMSGFLRATVSRPSAVLNEAVDRIIEFCERHKK
notes: full-length ORF 1347 bp (448 residues from ORF length) amplified from L. donovani genomic DNA; pET28a(+) BamHI/HindIII, His-tagged, E. coli BL21, Ni-NTA
With B1, the Michaelis-Menten constant (Km) in the series “purified protein [1]” was 42.67 ± 0.38 mM; in the series “purified protein [2]”, 0.0008103 ± 0.00011 mM; in “purified protein [3]”, 0.02359 ± 0.00399 mM; in the series “purified protein [4]” it was 5.055 ± 0.42 mM; in “purified protein [5]”, 3.5 ± 0.90 mM; in “purified protein [6]”, 3.752 ± 0.96 mM. Also, the maximum rate (Vmax) in “purified protein [1]” came to 8600 µM/min/mg; in “purified protein [2]” it was 1850 µM/min/mg; in “purified protein [4]” it was 19900 µM/min/mg; in “purified protein [5]”, 11700 µM/min/mg; in the series “purified protein [6]”, 19800 µM/min/mg.
